Values quoted from earlier work as cited in publication PMC4729772 (Theranostics, 2016).

Substance: Albiglutide: glucagon-like peptide-1 dimer fused to human albumin
- half-life: four to seven
